The values that follow come from patent publication US20210347873A1 (SHANGHAI PHARMAEXPLORER, published 2021).

Experiment [1] deals with T1, biotinylated hBLyS-ECD (human, UniProt Q9Y275 134-285, biotinylated with Biotin-X-X-NHS (molar ratio 7:1); sites not stated).
T1 construct: also called biotinylated immunogen; BLyS protein
Description: blocking ELISA: biotinylated hBLyS-ECD on coated BAFF R, antibody 20 nM. On the procedure:
BAFF R (purchased from R & D Systems) was aliquoted into 96-well ELISA plate at 50 ng per well, and the plate was sealed with plastic film and incubated overnight at 4° C. On the next day the plate was washed four times with the plate washing buffer [PBS buffer containing 0.05% (v/v) Tween20] and added with blocking solution [PBS buffer containing 0.05% (v/v) Tween20 and 1% (w/w) BSA], then blocked for 1 hour at room temperature. The blocking solution was removed and 50 μL per well of the lead antibodies prepared in Embodiment 1 and 2 were added followed by the addition of 50 μL per well of the biotinylated hBLyS-ECD prepared in Embodiment 2. After incubation for 1 hour at 37° C., the plate was washed four times with the plate washing buffer [PBS buffer containing 0.05% (v/v) Tween20]. 100 μL per well of HRP-labeled (horseradish peroxidase) avidin (purchased from Sigma) was added and incubated at 37° C. for 1 hour. The plate was then washed four times with the plate washing buffer [PBS buffer containing 0.05% (v/v) Tween20]. 100 μL of TMB substrate was aliquoted into each well and after incubation for 5 minutes at room temperature, then 100 μL of stop solution (1.0 N HCl) was aliquoted into each well. A₄₅₀ₙₘ values were read with an ELISA plate reader (SpectraMax 384plus, Molecular Device) and the results were shown in FIGS. 9A-9B and Table 15. It was shown in Table 15 that the binding of BLyS protein to its receptor BAFF R could be blocked by the BLyS antibody.
In general terms: ELISA stands for enzyme-linked immunosorbent assay.

For experiment [2], the target named is T2, hBLyS-ECD (His-tagged extracellular domain of human BLyS protein, Ala134-Leu285) (human, UniProt Q9Y275 134-285).
T2 construct: Expressed in HEK293, purified on Ni column; also called immunogen
Kind of experiment: SPR (Biacore X100), antibody captured by anti-human Fc on CM5, hBLyS-ECD injected. How it is done:
Affinity constants were determined using a Biacore X100 instrument (purchased from GE Healthcare). Detailed operations and methods referred to the instrument manuals and detailed methods provided by manufacturers, specifically: determining affinity constant using a CM5 chip (Sensor Chip CM5, purchased from GE Healthcare). […] Then 1 M ethanolamine was injected in chip to block the remaining activation sites. After the antibody to be tested (i.e., the human BLyS antibody prepared by Embodiment 2) was captured by chip, 7 different gradient of immunogen dilutions (i.e., hBLyS-ECD) prepared by Embodiment 1 were injected and the binding and dissociation of antigen with antibody was detected by a Biacore instrument. The dissociation constant and binding constant were then fitted by Biacore X100 Evaluation Software 2.0, while the affinity constant was the ratio of dissociation constant to binding constant.
A general note: Surface plasmon resonance follows binding to a sensor surface in real time, without labels.

Experiment [3] deals with T1, biotinylated hBLyS-ECD. Description: competitive ELISA on biotinylated hBLyS-ECD; competitor L1D12. How it is done: The purified human BLyS antibody and hybridoma antibody were subjected to competitive enzyme-linked immunosorbent assay and the epitopes binding by different antibodies were analyzed.
Purified BLyS antibody was first diluted to a final concentration of 1.0 μg/mL with PBS, then aliquoted into a 96-well ELISA plate at 50 μL per well, and the plate was subsequently sealed with plastic film and incubated at 4° C. overnight. On the next day the plate was rinsed four times with the plate washing buffer [PBS buffer containing 0.05% (v/v) Tween20] and mixed with blocking solution [PBS buffer containing 0.05% (v/v) Tween20 and 1% (w/w) BSA], and then blocked at 37° C. for 1 hour. The blocking solution was removed, and the competitive antibody and IgG control were diluted to a final concentration of 40 μg/mL with PBS and then aliquoted into the 96-well ELISA plate at 50 μL per well. The biotinylated hBLyS-ECD was then diluted with PBS to a final concentration of 2 ng/mL and pipetted into the 96-well ELISA plate at 50 μL per well. The final concentration of competitive antibody and hBLyS-ECD was 20 μg/mL and 1 ng/mL, respectively. After incubation at 37° C. for 1 hour, the plate was rinsed four times with the plate washing buffer [PBS buffer containing 0.05% (v/v) Tween20]. 100 μL per well of HRP-labeled (horseradish peroxidase) streptavidin (purchased from Sigma) was added into the plate and the plate was incubated at 37° C. for 1 hour. The plate was then washed four times with the plate washing buffer [PBS buffer containing 0.05% (v/v) Tween20]. 100 μL of TMB substrate was aliquoted into each well and after incubation at room temperature for 5 minutes, 100 μL of stop solution (1.0 N HCl) was aliquoted into each well. A₄₅₀ₙₘ values were read by an ELISA plate reader (SpectraMax M5e, purchased from Molecular Device) and the results were shown in Tables 18A-18B. […] The data shown in the table is the inhibitory rate (%) of the binding level of the original antibody to hBLyS-ECD after addition of the competitive antibody.

In experiment [4] the target is T3, biotinylated hBLyS-ECD (human, UniProt Q9Y275 134-285, biotinylated with Biotin-X-X-NHS (molar ratio 7:1), sites not stated).
T3 construct: The hBLyS-ECD of Embodiment 1 after biotinylation (Embodiment 2); also called biotinylated immunogen; BLyS protein; not shown: His tag of the pCPC vector
Description: ELISA, biotinylated hBLyS-ECD captured on streptavidin; antibody 0.107 nM. How it is done:
Streptavidin was first diluted to a final concentration of 1.0 μg/mL with PBS, and then 50 μL of diluted streptavidin per well was aliquoted into 96-well ELISA plate, which was subsequently sealed with plastic film and incubated at 4° C. overnight. On the next day the plate was washed four times with the plate washing buffer [PBS buffer containing 0.05% (v/v) Tween20] and added with the blocking solution [PBS buffer containing 0.05% (v/v) Tween20 and 1% (w/w) BSA] and blocked for 2 hours at 37° C. The blocking solution was removed, the biotinylated hBLyS-ECD prepared in Embodiment 2 was diluted with PBS to a final concentration of 50 ng/mL and then aliquoted into the 96-well ELISA plate at 50 μL per well and incubated for 1 hour at 37° C. After rinsing the plate four times with the plate washing buffer [PBS buffer containing 0.05% (v/v) Tween20], 100 μl of the purified lead antibody harvested in Embodiment 1 and 2 was pipetted into each well. After incubation for 1 hour at 37° C., the plate was rinsed four times with the plate washing buffer [PBS buffer containing 0.05% (v/v) Tween20]. HRP-labeled (horseradish peroxidase) secondary antibody (purchased from Sigma) was added in and incubated at 37° C. for 1 hour. The plate was then rinsed four times with the plate washing buffer [PBS buffer containing 0.05% (v/v) Tween20]. 100 μL of TMB substrate was aliquoted into each well and after incubation for 5 minutes at room temperature, 100 μL of stop solution (1.0 N HCl) was aliquoted into each well. A₄₅₀ₙₘ values were read via an ELISA plate reader (SpectraMax M5e purchased from Molecular Devices) and the results were shown in FIGS. 5A-5B and Table 10.

T3 sequence (Q9Y275 134-285): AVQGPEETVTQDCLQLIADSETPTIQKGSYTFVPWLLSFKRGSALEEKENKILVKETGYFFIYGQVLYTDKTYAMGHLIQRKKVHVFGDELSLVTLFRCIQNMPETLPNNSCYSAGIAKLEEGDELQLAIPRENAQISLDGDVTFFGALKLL

B1: 8E7D9C7F5 (antibody, V domains shown)
VH: QVQLQQSGVELARPGASVKLSCKASGYTFTSYGISWVKQRTGQALEWIGEIYPRSGNTYYNEKFKGKATLTADKSSSTAYMELRSLTSEDSAVYFCARSGPITTLVATDYGMDYWGQGTSVTVSS
VL: DIVLTQSPASLAVSLGQRATISCRASKSVSTSSYSYMHWYQQKPGQPPKLLIKFASNLESGVPARFSGSGSGTDFTLNIHPVEEEDAATYYCQHSREFPYTFGGGTKLEIK
notes: Mouse hybridoma monoclonal antibody purified on Protein G
With B1, the OD450 nm with biotinylated hBLyS-ECD [1] is 0.133 OD450 nm.

B2: L1D12 (antibody, V domains shown)
VH: QVQLVQSGGGLVQPGGSLRLSCAASGFTVSSNYMSWVRQAPGKGLEWVSVIYSGGSTYYADSVKGRFTISRDNSKNTLYLQMNSLRAEDTAVYYCARGFHDILTGYGMDVWGQGTTVTVSS
VL: SSELTQDPAVSVALGQTVRITCQGDSLRNYYAGWYQQKPGQAPVLVIYGKNNRPSGIPDRFSGSSSGNTASLTITGTQAEDEADYYCSSRDNSGTHLVEFGGGTKLTVL
notes: From a human naive scFv phage library; also called human BLyS antibody L1D12; LID12
Usually Kd stands for the equilibrium constant for the complex coming apart. A low value points to higher affinity. One may read the koff as the rate constant with which the complex falls apart. Low values mean a long-lived complex, high ones a short-lived complex. The kon is the second-order rate constant of association. Low values mean slow association, high ones fast association. In experiment [2], B2 displayed a Kd of 2.42 nM, a koff of 0.00136 s⁻¹ and a kon of 561000 M⁻¹ s⁻¹. Besides, the “inhibitory rate (%)” value with biotinylated hBLyS-ECD [3] came to 94%.

B3: L1D12 (antibody, human IgG1, V domains shown)
VH: QVQLVQSGGGLVQPGGSLRLSCAASGFTVSSNYMSWVRQAPGKGLEWVSVIYSGGSTYYADSVKGRFTISRDNSKNTLYLQMNSLRAEDTAVYYCARGFHDILTGYGMDVWGQGTTVTVSS
VL: SSELTQDPAVSVALGQTVRITCQGDSLRNYYAGWYQQKPGQAPVLVIYGKNNRPSGIPDRFSGSSSGNTASLTITGTQAEDEADYYCSSRDNSGTHLVEFGGGTKLTVL
notes: also called LID12
For B3, the OD450 nm in the experiment with biotinylated hBLyS-ECD [4] turned out to be 0.678.

B4: 97A3C2H4 (antibody, V domains shown)
VH: EVKLVESGGGLVQPGGSLKLSCAASGFTFSTYTMSWVRQTPEKRLEWVAYISYGGGSTSYPDTVKGRFTISRDNAKNTLYLQMSSLKSEDTAIYYCTRHVTVVENSMDYWGQGTSVTVSS
VL: DILLTQSPDILSVSPGERVSFSCRASQSIGTSIHWYQQRTNGSPRLLIKYVSESFSGTPSRFSGSGSGTAFTLTINSVESEDIADYYCQQTHSWPWTFGGGTKLEIK
notes: as for B1
With B4, the OD450 nm with biotinylated hBLyS-ECD [1] is 0.125 OD450 nm.

B5: 97A3C2H4 (antibody, V domains shown)
VH: EVKLVESGGGLVQPGGSLKLSCAASGFTFSTYTMSWVRQTPEKRLEWVAYISYGGGSTSYPDTVKGRFTISRDNAKNTLYLQMSSLKSEDTAIYYCTRHVTVVENSMDYWGQGTSVTVSS
VL: DILLTQSPDILSVSPGERVSFSCRASQSIGTSIHWYQQRTNGSPRLLIKYVSESFSGTPSRFSGSGSGTAFTLTINSVESEDIADYYCQQTHSWPWTFGGGTKLEIK
notes: Mouse hybridoma antibody purified on Protein G
B5: the OD450 nm with biotinylated hBLyS-ECD [4] was 0.899.

B6: 111D10D6G3 (antibody, V domains shown)
VH: QVQLQQPGAELVKPGASVKMSCKASGYTFTRHWITWVKQRPGQGLEWIGDIFPGSGSINYNEKFKSEATLTVEKSSSTAYMQLSSLTSEDSAVYYCARGDVDVWGTGTTVTVSS
VL: DIQMTQSPSSLSASLGERVSLTCRASQEIRGYLSWLQQKPNGTIKRLIYAASTLDSGVPKRFSATRSGSDFSLTISSLESEDFADYYCLQYASYPFTFGSGTKLEIK
notes: as for B1
As to B6, in the experiment with biotinylated hBLyS-ECD [1], the OD450 nm is 0.616 OD450 nm.

B7: 111D10D6G3 (antibody, V domains shown)
VH: QVQLQQPGAELVKPGASVKMSCKASGYTFTRHWITWVKQRPGQGLEWIGDIFPGSGSINYNEKFKSEATLTVEKSSSTAYMQLSSLTSEDSAVYYCARGDVDVWGTGTTVTVSS
VL: DIQMTQSPSSLSASLGERVSLTCRASQEIRGYLSWLQQKPNGTIKRLIYAASTLDSGVPKRFSATRSGSDFSLTISSLESEDFADYYCLQYASYPFTFGSGTKLEIK
notes: as for B5
B7: in the experiment with biotinylated hBLyS-ECD [4], the OD450 nm amounted to 0.613.

B8: 2-1G11 (antibody, V domains shown)
VH: EVQLVESRGGVVQPGRSLRLSCAASGFTFSSYGMHWVRQAPGKGLEWVAVISYDGSNKYYADSVKGRFTISRDNSKNTLYLQMNSLRAEDAAVYYCARDRVDILTGYSIYGMDVWGQGTTVTVSS
VL: EIVMTQSPATLSLSPGERATLSCRASQSVSSYLAWYQQKPGQAPRLLIYDASKRATGIPARFSGSGSGTDFTLTISSLEPEDFAVYYCQQRSNWPLTFGGGTKVEIK
notes: From a human naive scFv phage library; also called human BLyS antibody 2-1G11
As to B8, in experiment [2], the Kd came to 0.637 nM, the koff worked out at 0.000946 s⁻¹ and the kon is 1.48e+06 M⁻¹ s⁻¹. Also, the “inhibitory rate (%)” value with biotinylated hBLyS-ECD [3] worked out at 91%.

B9: L9G7 (antibody, V domains shown)
VH: QIQLVQSGAEVKKPGASVKVSCKASGYTFTSYGISWVRQAPGQGLEWMGWISAYNGNTNYAQKLQGRVTMTTDTSTSTAYMELRSLRSDDTAVYYCARTYYDILTGYYYYGMDVWGQGTTVTVSS
VL: EIVLTQSPGTLSLSPGERATLSCRTSQSVDTYLAWYQQKPGQAPRLLIYDASNRATGIPARFSGSGSGTDFTLTISSLEPEDFAVYYCQQRSNWPLTFGGGTKVEIK
notes: From a human naive scFv phage library; also called human BLyS antibody L9G7
In experiment [2], B9 showed a Kd of 0.525 nM, a koff of 0.000244 s⁻¹ and an association rate constant (kon) of 465000 M⁻¹ s⁻¹. For the same molecule, the “inhibitory rate (%)” value in the experiment with biotinylated hBLyS-ECD [3] amounted to 97%.

B10: L9G7 (antibody, human IgG1, V domains shown)
VH: QIQLVQSGAEVKKPGASVKVSCKASGYTFTSYGISWVRQAPGQGLEWMGWISAYNGNTNYAQKLQGRVTMTTDTSTSTAYMELRSLRSDDTAVYYCARTYYDILTGYYYYGMDVWGQGTTVTVSS
VL: EIVLTQSPGTLSLSPGERATLSCRTSQSVDTYLAWYQQKPGQAPRLLIYDASNRATGIPARFSGSGSGTDFTLTISSLEPEDFAVYYCQQRSNWPLTFGGGTKVEIK
For B10, the OD450 nm with biotinylated hBLyS-ECD [4] is 0.528.
